# Results: US20210363269A1 (ALX ONCOLOGY, published 2021)
# Residue numbers refer to the chain shown, from its start.
# T1: high affinity SIRP-α D1 variant CV1-3
# T1 chain: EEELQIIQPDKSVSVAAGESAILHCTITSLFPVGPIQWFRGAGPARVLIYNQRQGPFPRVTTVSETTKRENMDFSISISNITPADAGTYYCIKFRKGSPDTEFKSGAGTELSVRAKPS
# T2: cynomolgus SIRP-α D1 domain (cyno1) (cynomolgus monkey, UniProt Q5TFQ8 30-148 (human entry), limits assumed)
# T2 chain: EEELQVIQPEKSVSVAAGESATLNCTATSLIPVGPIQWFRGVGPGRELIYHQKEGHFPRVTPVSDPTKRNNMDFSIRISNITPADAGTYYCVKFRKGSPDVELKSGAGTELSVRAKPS
# T3: cynomolgus SIRP-α D1 domain (cyno2) (cynomolgus monkey, UniProt Q5TFQ8 30-148 (human entry), limits assumed)
# T3 chain: T2 chain with E19D, A27V, T28S, V42A, H51N, Q52L, P62A
# T4: mouse 129 SIRP-α D1 domain (mouse (129 strain), UniProt P97797 32-150)
# T4 construct: also called m129
# T4 chain: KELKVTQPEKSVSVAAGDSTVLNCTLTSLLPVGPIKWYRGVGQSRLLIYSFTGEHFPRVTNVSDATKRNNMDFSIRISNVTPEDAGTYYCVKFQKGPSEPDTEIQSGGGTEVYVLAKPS
# T5: NOD mouse SIRP-α D1 domain (mouse (NOD strain))
# T5 chain: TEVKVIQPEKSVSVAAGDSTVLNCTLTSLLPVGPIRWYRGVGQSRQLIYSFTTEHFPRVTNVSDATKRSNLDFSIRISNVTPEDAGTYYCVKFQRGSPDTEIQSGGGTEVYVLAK
# T6: C57BL/6 mouse SIRP-α D1 domain (mouse (C57BL/6 strain), UniProt P97797 32-148)
# T6 sequence: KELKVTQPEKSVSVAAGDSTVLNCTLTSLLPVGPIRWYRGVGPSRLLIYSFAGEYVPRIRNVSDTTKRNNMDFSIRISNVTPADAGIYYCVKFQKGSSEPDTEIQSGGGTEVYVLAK
# B1: S59 (scFv, V domains shown)
# VH: DVQLVESGGGVVRPGESLRLSCAVSGFRFSSHAMSWVRQAPGKGLEWVSGISSGGDTYYVDSVKGRFTISRDNSKNTLYLQVNSLTAEDTAIYYCARETWNHLFDYWGLGTLVTVSS
# VL: ALTQPASVSANLGETVKITCSGGDSSSHYYGWYQQKSPGSAPVTVIYSDDERPSDIPSRFSGSASGSTATLTITGVRVEDEAIYYCGAYDGSTYANTFGAGTTLTVL
# notes: also called clone 59
# B2: S76 (scFv, V domains shown)
# VH: DVQLVESGGGVVRPGESLRLSCAASGFTFSSYAMSWVRQAPGKGLEWLAGISAGGSDTYYIDSVKGRFTISRDNSKNSLYLQMNSLTAEDTAVYYCARETWNHLFDYWGLGTLVTVSS
# VL: ALTQPASVSANPGETVKITCSGGDWYSTYYGWYQQKSPGSAPVTVIHSDDKRPSDIPSRFSGSASGSAATLTITGVRVEDEAVYYCAGYDGRTYINTFGAGTTLTVL
# notes: also called clone 76
# B3: S17 (scFv, V domains shown)
# VH: B2 VH with G10A, K76E
# VL: B2 VL
# notes: also called clone 17
# B4: S23 (scFv, V domains shown)
# VH: B2 VH with Y32H, N77S, Q82R
# VL: B2 VL with W25Y, G31A, K51E, T72I, Y85F, A87G
# notes: also called clone 23
# B5: S56 (scFv, V domains shown)
# VH: B2 VH with M83V
# VL: B2 VL with D24G, W25Y
# notes: also called clone 56
# B6: S60 (scFv, V domains shown)
# VH: B2 VH with E6D
# VL: B2 VL with W25Y, Y85F, A87G, G88A
# notes: also called clone 60
# B7: S65 (scFv, V domains shown)
# VH: B2 VH
# VL: B2 VL with W25Y, Y85F, A87G, G88A
# notes: also called clone 65
# B8: S66 (scFv, V domains shown)
# VH: B2 VH with S75P, N84S
# VL: B2 VL with W25Y, G31A, T72I, A87G
# notes: also called clone 66; scFv-Fc form of AB66
# B9: S69 (scFv, V domains shown)
# VH: B2 VH with V2L
# VL: B2 VL with T19I, W25Y, Y85F, A87G, G88A
# notes: also called clone 69
# B10: S70 (scFv, V domains shown)
# VH: B2 VH with T58A
# VL: B2 VL
# notes: also called clone 70
# B11: S71 (scFv, V domains shown)
# VH: B2 VH
# VL: B2 VL with D24G, W25Y, G91A
# notes: also called clone 71
# B12: S202 (scFv, V domains shown)
# VH: B2 VH
# VL: B2 VL with D24G, W25Y, K36R, I95L
# B13: S24 (scFv, V domains shown)
# VH: B2 VH with Y32N, I61P, D62A, S75P, S78T, S85T
# VL: ALTQPASVSANPGETVKIACSGGSYYSYYYGWYQQKSPGSALVTVIYSDDKRPSGIPSRFSGSASGSTATLTITGVRAEDEAVYYCGGYDYSSYTNDFGAGTTLTVL
# notes: also called clone 24
# B14: S21 (scFv, V domains shown)
# VH: B2 VH with Y32N, I61P, D62A, S78T, S85T
# VL: B13 VL with S24D, S37A, G55D, S93T, T95A, D97A
# notes: also called clone 21; scFv-Fc form of AB21
# B15: S22 (scFv, V domains shown)
# VH: DVQLVESGGGVVRPGESLRLSCAASGFTFSSYAMSWVRQAPGKGLEWLAGISAGGSDTYYIDSVKGRFTISRRQFQEQSLSPNEPALTAEDTAVYYCARETWNHLFDYWGLGTLVTVSS
# VL: B2 VL with W25Y, T74A, Y85F, A87G, G88A
# notes: also called clone 22
# B16: S25 (scFv, V domains shown)
# VH: DVQLVESGGGVVRPGESLRLSCEASGFTFSSNAMSWVRQAPGKGLEWVAGISSGSDTYYGDSVKGRLTISRDNSKNILYLQMNSLTAEDTAVYYCARETWNHLFDYWGLGTLVTVSS
# VL: B13 VL with K17E, A19T, Y26S, G31A, L42P, V45L, G55N, Y85F, Y91Q, D97P
# notes: also called clone 25; scFv-Fc form of AB25
# Target: T1, high affinity SIRP-α D1 variant CV1-3
# Experiment: SPR, Langmuir fit
# Method in brief: (§1)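 scFv-Fc antibody clones were captured from pre-filtered culture media onto anti-human IgG Fc, amine-coupled at about 4000 RU on a GLC chip in a ProteOn XPR36 instrument. SIRP analytes were passed over in PBS pH 7.4 with 0.01% Tween-20 at 25° C, and responses were double-referenced against interspot and buffer-blank signals. Curves were fitted to a 1:1 Langmuir model. Dissociation rate constants (koff) were taken from those fits.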
row,Binder,koff [s⁻¹]
1,B1,8.19e-05
2,B2,0.000155
3,B3,0.000154
4,B4,0.000106
5,B5,0.000203
6,B6,0.000145
7,B7,0.000147
8,B8,0.00011
9,B9,0.000233
10,B10,0.00026
11,B11,0.000379
12,B12,6.86e-05
13,B13,0.000216
14,B14,0.000195
15,B15,0.000135
16,B16,0.00014

# Target: T7, human SIRPγ isoform 1 (human, UniProt Q9P1W8 29-147)
# T7 construct: also called SIRPg; sirpg
# Experiment: SPR, Langmuir fit
# Method in brief: as §1
# T7 sequence (Q9P1W8 29-147 limits assumed): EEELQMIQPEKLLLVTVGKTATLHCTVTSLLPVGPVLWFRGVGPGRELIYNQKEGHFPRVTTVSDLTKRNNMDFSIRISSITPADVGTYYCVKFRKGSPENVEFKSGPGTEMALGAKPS
row,Binder,koff [s⁻¹]
1,B1,4.28e-05
2,B2,0.000177
3,B3,0.000102
4,B4,0.000104
5,B5,0.000215
6,B6,0.0001
7,B7,0.000134
8,B8,0.000126
9,B9,0.000199
10,B10,0.000222
11,B11,0.000316
12,B12,4.44e-05
13,B13,0.000197
14,B14,0.000184
15,B15,0.000108
16,B16,0.000141

# Target: T8, human SIRP-α v1 D1 domain (human, UniProt P78324 31-149)
# T8 construct: also called human v1
# Experiment: SPR, Langmuir fit
# Method in brief: as §1
# T8 sequence (P78324 31-149 limits assumed): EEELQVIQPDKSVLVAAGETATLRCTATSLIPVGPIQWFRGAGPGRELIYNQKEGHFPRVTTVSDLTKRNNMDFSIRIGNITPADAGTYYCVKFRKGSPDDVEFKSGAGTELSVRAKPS
row,Binder,koff [s⁻¹]
1,B1,4.98e-05
2,B2,0.00014
3,B3,0.000124
4,B4,8.35e-05
5,B5,0.000228
6,B6,0.00014
7,B7,0.000145
8,B8,0.000118
9,B9,0.000205
10,B10,0.000225
11,B11,0.000335
12,B12,3.75e-05
13,B13,0.000257
14,B14,0.00018
15,B15,0.000121
16,B16,0.000112

# Target: T9, human SIRP-α v2 D1 domain (human)
# T9 construct: also called human v2
# Experiment: SPR, Langmuir fit
# Method in brief: as §1
# T9 sequence (chain, as listed by the source limits assumed): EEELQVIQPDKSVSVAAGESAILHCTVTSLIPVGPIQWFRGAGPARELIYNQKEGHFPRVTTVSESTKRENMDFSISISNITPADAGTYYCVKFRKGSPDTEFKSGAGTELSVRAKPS
row,Binder,koff [s⁻¹]
1,B1,8.63e-05
2,B2,0.000209
3,B3,0.000197
4,B4,0.000135
5,B5,0.000286
6,B6,0.000186
7,B7,0.000172
8,B8,0.000206
9,B9,0.000267
10,B10,0.00029
11,B11,0.000403
12,B12,5.4e-05
13,B13,0.000317
14,B14,0.000207
15,B15,0.000146
16,B16,0.000209

# Target: T2, cynomolgus SIRP-α D1 domain (cyno1)
# Experiment: SPR, Langmuir fit
# Method in brief: as §1
row,Binder,koff [s⁻¹]
1,B1,0.000106
2,B2,0.000277
3,B3,0.000193
4,B4,0.00016
5,B5,0.000295
6,B6,0.000192
7,B7,0.000188
8,B8,0.00025
9,B9,0.000255
10,B10,0.000296
11,B11,0.000364
12,B12,0.000113
13,B13,0.000382
14,B14,0.000233
15,B15,0.000177
16,B16,0.000219

# Target: T3, cynomolgus SIRP-α D1 domain (cyno2)
# Experiment: SPR, Langmuir fit
# Method in brief: as §1
row,Binder,koff [s⁻¹]
1,B1,0.000113
2,B2,0.000269
3,B3,0.000207
4,B4,0.000183
5,B5,0.00028
6,B6,0.000175
7,B7,0.00019
8,B8,0.000255
9,B9,0.000216
10,B10,0.000245
11,B11,0.000313
12,B12,0.00012
13,B13,0.000334
14,B14,0.000252
15,B15,0.000177
16,B16,0.000212

# Target: T4, mouse 129 SIRP-α D1 domain
# Experiment: SPR, Langmuir fit
# Method in brief: as §1
row,Binder,koff [s⁻¹]
1,B1,0.000209
2,B2,0.000179
3,B3,0.000234
4,B4,0.000134
5,B5,0.000406
6,B6,0.000221
7,B7,0.000159
8,B8,0.000127
9,B9,0.000246
10,B10,0.00027
11,B11,0.000417
12,B12,4.58e-05
13,B13,0.000402
14,B14,0.000281
15,B15,0.000153
16,B16,0.000133

# Target: T5, NOD mouse SIRP-α D1 domain
# Experiment: SPR, Langmuir fit
# Method in brief: as §1
row,Binder,koff [s⁻¹]
1,B1,0.00135
2,B2,0.000576
3,B3,0.000612
4,B4,0.000823
5,B5,0.00106
6,B6,0.000726
7,B7,0.000607
8,B8,0.00049
9,B9,0.000709
10,B10,0.000672
11,B11,0.00112
12,B12,0.000509
13,B13,0.00386
14,B14,0.00264
15,B15,0.000583
16,B16,0.000779

# Target: T6, C57BL/6 mouse SIRP-α D1 domain
# Experiment: SPR, Langmuir fit
# Method in brief: as §1
row,Binder,koff [s⁻¹]
1,B1,0.00239
2,B2,0.000998
3,B3,0.00113
4,B4,0.00132
5,B5,0.00429
6,B6,0.0015
7,B7,0.000786
8,B8,0.00102
9,B9,0.000765
10,B10,0.000987
11,B11,0.00341
12,B12,0.00063
13,B13,0.00126
14,B14,0.000806
15,B15,0.000736
16,B16,0.00029

# Target: T10, human SIRPβ isoform 1 (human, UniProt O00241 30-148)
# T10 construct: also called SIRPb; sirpb1
# Experiment: SPR, Langmuir fit
# Method in brief: as §1
# T10 sequence (O00241 30-148 limits assumed): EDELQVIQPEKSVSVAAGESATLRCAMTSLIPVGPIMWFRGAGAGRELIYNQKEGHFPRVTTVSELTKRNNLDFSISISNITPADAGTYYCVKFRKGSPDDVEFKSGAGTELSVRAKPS
row,Binder,koff [s⁻¹]
1,B1,0.000107
2,B2,0.000187
3,B3,0.000125
4,B4,0.000114
5,B5,0.000362
6,B6,0.000153
7,B7,0.000154
8,B8,0.000138
9,B9,0.000229
10,B10,0.000225
11,B11,0.000388
12,B12,0.00205
13,B13,0.000194
14,B14,0.00019
15,B15,0.000138
16,B16,0.000171
